A word on the stoichiometry N: it is the number of molecules, sites or subunits per partner or assembly.

The target of the assay is human Hsp90β (HSP90AB1) (human) (UniProt P08238). Kind of assay: SEC-MALS. On the technique in general: SEC sorts molecules by how far they enter the pores of the column.

Sequence of human Hsp90β (HSP90AB1), P08238 1-724 (natural protein; other documents disagree on this pair) (P08238 whole entry): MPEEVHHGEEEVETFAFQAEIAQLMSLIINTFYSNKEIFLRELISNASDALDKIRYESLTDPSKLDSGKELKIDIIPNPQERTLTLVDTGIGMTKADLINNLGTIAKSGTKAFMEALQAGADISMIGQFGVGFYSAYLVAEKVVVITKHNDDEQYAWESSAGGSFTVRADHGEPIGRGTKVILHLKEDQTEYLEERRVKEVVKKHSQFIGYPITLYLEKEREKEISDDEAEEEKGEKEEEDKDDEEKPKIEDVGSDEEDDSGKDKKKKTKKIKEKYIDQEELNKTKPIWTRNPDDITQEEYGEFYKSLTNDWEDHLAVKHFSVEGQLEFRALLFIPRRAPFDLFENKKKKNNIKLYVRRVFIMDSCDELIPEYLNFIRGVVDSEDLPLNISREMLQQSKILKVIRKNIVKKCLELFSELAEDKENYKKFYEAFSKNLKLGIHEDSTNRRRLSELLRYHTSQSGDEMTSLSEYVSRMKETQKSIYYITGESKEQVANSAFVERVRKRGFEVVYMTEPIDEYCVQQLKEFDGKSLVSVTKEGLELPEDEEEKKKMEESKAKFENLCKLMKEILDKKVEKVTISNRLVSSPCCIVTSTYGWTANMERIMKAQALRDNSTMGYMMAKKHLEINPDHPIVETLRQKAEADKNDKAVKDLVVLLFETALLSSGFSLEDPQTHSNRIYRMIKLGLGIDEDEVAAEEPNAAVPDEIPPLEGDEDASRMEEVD

For “human Hsp90β (HSP90AB1), P08238 1-724 (natural protein; other documents disagree on this pair)”, the stoichiometry N worked out at 2.

These data come from publication PMC7679967.
